Square brackets hold non-standard residues; d marks the D form. Ends that are not written are not given here. pY = N[C@@H](Cc1ccc(OP(=O)(O)O)cc1)C(=O)O
Target: 85 kD protein / PI3 kinase (phosphatidylinositol 3' kinase) of BALB/c 3T3 cells (mouse (BALB/c 3T3 cells))
Experiment: competition: range of peptide concentrations preincubated with 3T3 lysate before immobilised receptor m1; in vitro kinase and PI3 kinase assays

Sequence of 85 kD protein / PI3 kinase (phosphatidylinositol 3' kinase) of BALB/c 3T3 cells (mouse (BALB/c 3T3 cells)) (P26450 2-724): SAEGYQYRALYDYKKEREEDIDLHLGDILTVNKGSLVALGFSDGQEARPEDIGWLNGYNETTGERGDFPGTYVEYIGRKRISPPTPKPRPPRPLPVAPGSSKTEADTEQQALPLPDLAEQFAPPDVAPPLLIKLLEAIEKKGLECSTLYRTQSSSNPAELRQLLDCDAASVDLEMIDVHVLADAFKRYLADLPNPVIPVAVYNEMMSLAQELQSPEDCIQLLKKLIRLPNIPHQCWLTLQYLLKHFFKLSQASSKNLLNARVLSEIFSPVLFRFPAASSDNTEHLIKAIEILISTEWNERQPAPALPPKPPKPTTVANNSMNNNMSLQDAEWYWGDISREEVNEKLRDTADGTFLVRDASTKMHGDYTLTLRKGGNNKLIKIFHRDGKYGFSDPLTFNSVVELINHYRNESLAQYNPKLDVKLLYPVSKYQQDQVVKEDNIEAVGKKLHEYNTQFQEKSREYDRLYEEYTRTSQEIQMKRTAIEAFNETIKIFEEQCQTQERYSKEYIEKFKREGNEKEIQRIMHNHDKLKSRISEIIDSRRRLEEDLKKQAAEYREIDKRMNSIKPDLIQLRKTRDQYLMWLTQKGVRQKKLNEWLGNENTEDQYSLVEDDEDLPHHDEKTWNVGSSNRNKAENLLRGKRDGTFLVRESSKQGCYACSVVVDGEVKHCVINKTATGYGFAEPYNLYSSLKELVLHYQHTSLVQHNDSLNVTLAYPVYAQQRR

In the case of GGYMDMSKDESID[pY]VPMLDM [peptide Y719P], the IC50 is reported as < 5 µM.

— patent US6372438
